The results in this text go back to publication PMC2248580.

The assay concerns the target human activated blood coagulation factor X (FXa) (human). As to the kind of experiment: SPR; […]; 37°C; HBS (10 mM Hepes, 150 mM NaCl, 5 mM CaCl2, 0.005% P20, pH 7.4); Langmuir fit; […]. For orientation: In SPR one partner is held on a chip, and binding of the other changes the refractive index at the surface.

The substance “Myotoxin II from Bothrops asper venom (from UniProt P24605 17-137) (natural protein)” gave a Kd of 1.8 nM, a koff of 0.0178 s⁻¹ and a kon of 1.04e+07 M⁻¹ s⁻¹.

In general, Kd refers to a measure of binding affinity in units of concentration. Read a high Kd as weaker binding. For orientation: koff means the first-order rate constant of dissociation. High values mean fast dissociation, low ones slow dissociation. For orientation: kon means a measure of how fast the partners come together. Low readings indicate slow association, high ones fast association.
